Measured values as given in the nanobody polyreactivity screen of Harvey et al. (2022).

Test: yeast display, Sf9 membrane polyspecificity reagent, FACS + sequencing; frameworks hold sequencing errors
Summary of the method: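 Galactose-induced (36–48 hours) yeast carrying a synthetic nanobody display library were exposed to 10% biotinylated, detergent-solubilized Sf9 membrane reagent at 4 °C for 1 hour. FACS followed streptavidin microbead enrichment, using low and high (top ~1%) gates for expression (anti-HA) and reagent binding (streptavidin). Colony PCR, MiSeq 2 × 250 sequencing and CDR-length filtering followed. Labels for polyreactivity reflect the gate of origin.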

Sequence	polyreactivity (PSR sort gate)
QVQLVESGVGLVQAGGSLRLSCAASGRIFGSYTMGWYRQAPGKERELVAGISRRGGSTYYADSVKGRFTISRDNAKNTVYLQMNSLKPEDTAVYYCAVVSSHYKGPGRNGYDYWGQGTQVTVSS	high polyreactivity
QVQLVESGGGLVHAGGRLRLSCAASGSTFSPYAMGWYRQPPGKERELVAAITRSGGRTYYADSVKGRFTISRDNAKNTVYLQMNSLKPEDTAVYYCAARNYKPYGYYRIYDSWGQGTQVTVSS	high polyreactivity
QVQLVESGGGLVQAGGSLRLSCAAYGFIFPGNAMGWYIQAPGKERELVAAISNSGSRTYYADSVKGRFTISRDNAKNTVYLQMNSLKPEDTAVYYCNADVHNRGWPYDYWGQGTQVTVSS	low polyreactivity
QVQLVESGGGLVQAGGSLRLSCAASGITFVRYAMGWYRQAPGKEREFVAAINSIVGRTYYADSVKGRFTISRDNAKNTVYLQMNSLKPEDTAVYYCAADSNVRYGMDYWGQGTQVTVSS	low polyreactivity
QVKLVESGGGLVQAGGSLRLSCAASGSTFSPYVKAWYRQAPGKERELVAAIRYRGGSTYYADSVKGRFTISRDNAKNTVYLQMNSLKPEDTAVYYCATKRSHYSGGYWGQGTQVTVSS	high polyreactivity
QVQLVESGGGLVQAGGSLRLSCAASGRIFWDNAMGWYRQAPGKERELVAAISDSVVITYYADSVKGRFTISRDNAKNTVYLQMNSLKPEDTAVYYCNTDARYDEYDEFDYWGQGTQVTVSS	low polyreactivity
QVLLVESGGGLVQEGGSLRLSCAASGITFDTYAMGGYRQAPGKEREFVASIKWITGNTYYEDSVKGRFTISRDNAKNTVYLQMNSLKTEDTAVYYCAARTYYVRGLGGRPGMDYWGQGTQVTVSS	low polyreactivity
QVQLVESGGGLVQAGGRLRLSCAASGRTFFQYAMGWYRQAPGKERELVAAIRCSDSTYYADSVKGRFTISRDNAKNTVYLQMNSLKPEDTAVYYCAVRAYREFLPIVYKWWWERDHWGQGTQVTVSS	low polyreactivity
QVQLVESGGGLVQAGGSLRLSCAASGNIFIYNAMGWYRQAPGKERELVAAISVSGGDTYYADSVKGRFTISRDNAKNTVYLQMNSLKPEDTAVYYCAAEAEYIELDYWGQGTQVTVSS	low polyreactivity
QVQLVESGGGLVQAGGSLRLSCAASGRIFAFYAMGWYRQAPGKERELVAAITSGGSTKYADSVNGRFSISRDNAKNTVYLLMNSMKPEDTAVYYCAARYRWQFRSQYDYWGQGTQVTVSS	high polyreactivity
QVQLGESGGGLVQAGGSLRLSCAASGRTFVDNHMGWYRQAPGKERELVAAITWRGGGTYYADSVKGRFTISRYNAKNTVYLQMNSLKPEDTAVYYSAADQRPPFVEPRGLSTGEFDYWGQGTQVTVSS	low polyreactivity
QVQLVESGGGLVQAGGSLRLRCAASARTFGKYAMGWYRQAPGKERELVASNSLSGGSTYYADSVKGRFTISRDNAKNTVYLQMNSLKPEDTAVYSCAAKHGWYGLGYWGQGTQVTVSS	low polyreactivity
QVQRVESGGGLVQEGGSLSLSCAASGSTYKNAMGWYRQAPGKERELVAAITWSGGTTYYADSVKGRFTISRDNAKNTVYLQINSLKPEDTAVYYCAAEYRWYSRYFNYWGQGTQVTVSS	high polyreactivity
QVQLVESGGGLVQAGGSLRLSCAASGSIFAKNAMGWYRQAPGKERELVAGIDFSGGSTYSADSVKGRFTISRDNAQNTVYLQMNSLKPEDTAVDYCAADWAYKYELDYWGQGTQVTVSS	low polyreactivity
QVQLVESGGGLVQAGGSLRLRGAAAGYNFLRYAIGWYRQAPGTERELVAAITNTGNTNYADSVKGRFTISRDNAKNTVYLQMNSLKPEDTAVYSCAAEYYWYSWKNRYKEYDYWGQGTQVTLSS	low polyreactivity
QVQLVESGGGLVQAGGSLRLSCAASGSTFPRYAMGWYRQAPGKERELVASITSDGGSTYYADSVKGRFTISRDNAMNTVYLQLNSLKPEDTAVYYCNKVTYRGYRRYGYWGQGTQVTVSS	high polyreactivity
QVQLVESGGGLVQAGGSLRLSCAASGFIFRRYAMGWYRQAPGKERELVAAITWSGGSTYYADSVKGRFTISRDNAKNTVYLQMNSLKPEDTAVYYCNRASLPSVWGYDYWGQGTQVTVSS	high polyreactivity
QVQLVESGGGLVQAGGSLRLSCAASGRIFQYYTIGWYRQATGKERELVAAIRSSGGITYYADSVKGRFTISRDNAKYTVYLQMNSLKPEDTAVYYCAARWYRSKYDYWGQGTQVTVSS	high polyreactivity
QVQLVESGGGLVQAGGSLRLSCAASGSIFELYAMGWYRQAPGKDRELVASITWSSSNTHYADSVKGRFTISRDNAKNTVYLQMNSMKPEDTAVYYCAKDVLYGQFDGDSWGQGNQVTVSS	low polyreactivity
QVQLVESGGGLVQAGGSLRLSCAASGSTFLRYAMGWYRQAPGKERELVAAINWSGGGTSYADSVKWRFTISRDNAKNTVYLQMNSLKPEDTEGYSCAAYFRYSYYWSEYWGQGTQVTVSS	high polyreactivity
QVQLVESGGGLVQAGGSLRLSCAASGGIFAHYVMGWYRQAPGKERELVAAISASGGSTYYADSVKGRFTISRDNAKNTVYLQMNSLKPEDTAVYYCAAYYLAWYAYRYKTVGSAMDHWGQGTQVTVSS	low polyreactivity
QGQLVESGGGLVQAGGSLRLSCAGSGRTFSSNAMGWYRQGRGKVRELVASISFRGGRTYYADSVKGRFTISRHNAKKTVYLQMNSLKPEDTAVYYCVSRTKRTGYGYWGQGTQVTVSS	high polyreactivity

Sequence	polyreactivity (PSR sort gate)
QVQLVESGGGLVQAGGSLRLSCAASGFIFWQYTMGWYRPAPGKERELVAAINGGSATYYADSVKGRFTISRDNAKNTVYLQMNSLKPEDTAVYYCAADRYLYHYRYEYYYWGQGTQVTVSS	high polyreactivity
QVQLEESGGGLVQAGGSLRLSCAASGFIYAHYAMGWYRQAPGKERELVAAISSRGGSTYYADSVKGRFTISRDYAKNPVYLQINSLKPEDTAVYYCAKARHRPARGYEYWGLGTQVTVSS	high polyreactivity
QVQLVESGGGLVQAGGSLRLSCAASGSTFGWYAMGWYRQAPGKERDFVASITSSTGSTYYADSVKGRFTISRDNAKNTVYLQMYSLKPEDTAVYYCAASYVYTFLSYLLEYDYWGQGTQVTVSS	high polyreactivity
QVQLVESGGGLVQAGGSLRLICAASGRTFGGYAMGWYRQAHGKERELVAAISDRGTSTYYADSVKGRFTISRDNAKYTVYLQMNSVKPEDTAVYYCAASSARRRMDYWGQGTQVTVSS	high polyreactivity
QVQLVESGGGLVQAGGSLRLSCAASGIIFQRNDMGWYRQAPGKERELVANIRDGGITYADSVKGRFTISRDNAKNTVYLQMNRLKPEDTAVYYCARDDTSPGYGDQSSNAAYYYWGQGTQVTVSS	low polyreactivity
QVQLVESVGGLVQAGGSLRLSCAASGRTFFPYAMGWYRQAPGKEREFVAAITKTDDSTYYADSVKGRFTISRDNAKNTVYLQMNSLKPEDTAVYYCNAGDTQIRFYYWGQGTQVTVSS	low polyreactivity
QVQLVESGGGLVQAGGSLRLSCAASGITFSVNTMGWYRQAPGKERELVAAITSAGGTYYADSVKGRFTISRDNAKNTVYLQMNSQKPEDTAVYYCAAANFRSYLSQTGPRAYYYWGQGTQVTVSS	low polyreactivity
QVQLVESGGGLVQAGGSLRLSCAASGLNFYWYAMGWYRQAPGKERELFAAINWSGGRTHYADSVKGRFTMSRDNANNTVYFQMNCLKPEDTAVYYCAASPYWFTRYYPKTRETMDYWGQGTQVTVST	high polyreactivity
QVQLVESGGGLVQAGGSLRLSCAASGRIFSYYAMGWYRQAPGKERELVAAITKSGGSTFYADSVKGRFTISRDNAKNTVYLQMNSLKPEDTAVYYCAAEVTLEDWGYSWKYDYLGQGTQVTVSS	high polyreactivity
QVQLVESGGGLVQAGGSLRLSCAASGSIFGPYAMGWYRQAPGKERELVAAITWTGGRTYYADSVKGRFTISRDNAKNTVYLQMNSLKPVDTAVYDCAADYSPSTWYLYYTLYYYWGEGTQVTVSS	low polyreactivity
QVHLVESGGGLVQAGGSLRLSCAASGITFYGNTMGWYRQTPGKERELVARISSGGSTNYAESVKGRFTISRVNAKNTVYLQMNSLKPEDTAVSYCAVKQYGFIWSGYGYDYWGQGSQVTVSS	high polyreactivity
QVQLVESGGGLVQAGGSLRLSCAASGRTFGINAMGWYRQAPGKERELVAVISFGDGGTYYADSVKGRFTISRDNAKNTVYLQMNSLKPEDSAVYYCAAEVVAQMNYWGQGTQVTVSS	low polyreactivity
QVQLVESGGGLVQAGGSLRLSCAASGFTFFTYTMGWYRQAPGKERELVAAISRDGARTNYADSVKGRFTISRDNAKNTVYLQMNSLKPEDTAVYYCAAPTSHLYTEKYDYWGQGTQVTVSS	high polyreactivity
QVQLVESGGGLVQAGGSLRLSCAASGIIFAWYAMGWYRQAPGKERELLAAISWSGGSTYYADSVKGRFTISRDNAKNTVYLQMNILKPEDSAVYYCAPFPRRQGKYDYWGKGTQVTVSS	high polyreactivity
QVQLVESGAGLVQAGGSLRLICAASGLTFIYYAMGWYRQAPGKERELVAAISVSGGSTYYADSVKGRFTISRDNAKNTVYLQMNRLQREDTAVYYCAADWLVHKPRYQYSFDFWGQVTQVTVSS	low polyreactivity
QDQLVYSGGGLVQAGGSLSISCASSVSTFGGYAMGWYRQAPGKERELVSAITWSAGSTYADSVKGRFTISRDNAKNTVYLQMTSLKPEDTAVYYCAAYPYVGYVSLSAYDYWGQGTQVTVSS	low polyreactivity
QVQLVESGGGLVQAGGSLRLSCAASGSIFDPYAMGWYRQAPGKERELVAAISWSDSSTYYADSVKGRFTISRDNEKNTVYLQMNSLKPEDTAVYYSAAPSRYRYYWGNYWGQGTQVTVSS	high polyreactivity
QVQLVESGGGLVQAGGSLRLSCAASGFKYAMGWYRQATGKERELVAAISSGGITSYADSVKGRFTISRDNAKNTVYLQMNSLKPEDTAVYYCNARLRHSQYAYYYWGQGTQVTVSS	high polyreactivity
QVQIVESGGGLVQAGGSLPLSCADYGLIFPDYAMGCYRQAPGKEREFVASIWRGGTTYYADSVKGRFTISRDNAKNTFYFKINSLKPEDTAVYYCASRYFHRGLVFPFTKYDYWGLGTQVTVSS	high polyreactivity
QVQLVESGGGLVQAGGSLRLSCAASGRIFYTYAMGWYRRAPGKERELVAAIRISGVRTYYADSVKGRFTISRDNAKNTVYLQMNSLKPEDTAVYYCAADSYGDRMDYWGQGTQVTVSS	high polyreactivity
QVQLVESGGGLVQEGGSLRLSCAASGSIFWPNAMGWYRQAPGKERELVAAISWGTGSTYYADSVKGRFTISRDNAKNTVYLQINSLKPEDSAVYYCNAEYVVAFGYQYGEYDYWGQGTQVTVSS	low polyreactivity
